Data on 20 sequences can be found in the supplement of paper PMC9170038.

This series deals with MS2 coat protein. Briefly: apparent KD of MS2 coat protein; designed switch direction (-1 OFF switch, 1 ON switch): -1; higher = weaker reporter binding. The essentials: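 Stalled E. coli RNA polymerase transcribed designed RNA switches on Illumina chips, which were then titrated with SNAP-549-labelled MS2 coat protein, doubling from 0.7 or 1.5 nM to 3 µM. Steps lasted from 0.8–1.5 h at the lowest concentration to 10–20 min at the highest. The apparent KD is each design's median over clusters of curve-fitted normalised fluorescence.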

Setting [1] is: Eterna round: R95, input ligand: microRNA oligo, concentration not stated.
Where [2] appears, read: input ligand: microRNA oligo, concentration not stated.
Where [3] appears, read: Eterna round: R95, input ligand: FMN 200 uM.
The mark [4] stands for this setting: Eterna round: R95, input ligand: none.

With “AGGUAACAUGAGGAUCACCCAUGUCAGGAUAUCAGUAAGAUGAGUAUAGAAUAGAGUAUGAGAAGGGACUAUAU [Excluse me! 24 - Jieux - Exclusion 1] (puzzle: Exclusion 1)”, under setting [1], the “apparent KD of MS2 coat protein” value amounted to 30.4 nM.

Take “AGGUCCUUCUGGACACAUGAGGAUCACCCAUGUGCGGUCAGCGAGGAUAUCGGUCUAUAAUGUGACGAGAAGGCGCGGACCGAU [Ex NG3 #60] (Eterna round: R96, puzzle: Exclusion NG 3)”: the “apparent KD of MS2 coat protein” value by setting is: (input ligand: FMN 200 uM) 38.9 nM; under setting [2], 15.3 nM; (input ligand: none) 20.7 nM.

Regarding “AGGUGCUUCUGGAGACAUGAGGAUCACCCAUGUCGAGUCAGCGAGGAUAUCGGUAAGGCAUGUGAUGAGAAGGCGCAGACCGAU [Ex NG3 #51] (Eterna round: R96, puzzle: Exclusion NG 3)”, the “apparent KD of MS2 coat protein” value (input ligand: FMN 200 uM) worked out at 33.7 nM, the “apparent KD of MS2 coat protein” value under setting [2] was determined as 20.3 nM and the “apparent KD of MS2 coat protein” value (input ligand: none) was determined as 26.4 nM.

As for “AGUAACUAUCACGAAAGUGAUAGUUACACAAGCAGUGAAACAUGAGGAUCACCCAUGUCCUCAUUAGCUCGUCUUAU [Sensor 3 - 32] (puzzle: Sensor v3, turn-off variant 2)”, the “apparent KD of MS2 coat protein” value stood at 117 nM under setting [3], 729 nM under setting [1] and 164 nM under setting [4].

On to “AGUAACUCAAGAGGAUAUCACAUGAGGAUCACCCAUGUAUAGCGCGCUAUGCUAGUCCUCGUAUUUGAGAAGGUUUGAUAAAUG [JL ViennaUCT Quve mod 2] (Eterna round: R96, puzzle: Exclusion NG 2)”, for which the “apparent KD of MS2 coat protein” value (input ligand: FMN 200 uM) stood at 16.8 nM, the “apparent KD of MS2 coat protein” value under setting [2] is 13.1 nM and the “apparent KD of MS2 coat protein” value (input ligand: none) is 17.2 nM.

Regarding “AGUAAGCUAGGAUAUGCUUUGGGAAAGCAUUCCUUCGAUAAACUUGAGGAUCACCCAAGUAGAAGGAGCUUACC [salish99_ex2_r4_002] (Eterna round: R97, puzzle: Exclusion 2)”, the “apparent KD of MS2 coat protein” value is, setting by setting: (input ligand: FMN 200 uM) 13.4 nM; (input ligand: none) 12.4 nM.

Take “AGUACUAACACGCAAGUGUUAGUACAAUAAGCUUGUGAAACAUGAGGAUCACCCAUGUCCUCAUAAGCUCGUCUUAU [salish99_TOv2_r3_027] (puzzle: Sensor v3, turn-off variant 2)”: the “apparent KD of MS2 coat protein” value was found to be 16.2 nM under setting [3], 490 nM under setting [1] and 16.5 nM under setting [4].

Regarding “AGUACUAACACGCCUGUGUUAGUACAAUAAGCUUGUGAAACAUGAGGAUCACCCAUGUCCUCAUAAGCUCGUCUUAU [salish99_TOv2_r3_077] (puzzle: Sensor v3, turn-off variant 2)”, the “apparent KD of MS2 coat protein” value worked out at 16.3 nM under setting [3], 671 nM under setting [1] and 15.4 nM under setting [4].

As to “AGUACUAACACGUAAGUGUUAGUACUAUAAGCUUGUGUUACAUGAGGAUCACCCAUGUCCUCAUAAGCUCGUCUUAA [Mat - Sensor v3 - Turn-off var 2 - D71] (puzzle: Sensor v3, turn-off variant 2)”, the “apparent KD of MS2 coat protein” value was found to be 34.3 nM under setting [3], 132 nM under setting [1] and 39.4 nM under setting [4].

With “AGUACUAACUCGAUAGUGUUAGUACAAUAAGCUUGUGAAACAUGAGGAUCACCCAUGUCCUCAUAAGCUCGUCUUAU [salish99_TOv2_r3_1004] (puzzle: Sensor v3, turn-off variant 2)”, the “apparent KD of MS2 coat protein” value is, setting by setting: under setting [3], 16.9 nM; under setting [1], 726 nM; under setting [4], 15.4 nM.

As to “AGUACUAUCACGAAAGUGAUAGUACAAUAAGCUUGUGGAACAUGAGGAUCACCCAUGUCCUCAUAAGCUCGUCUUAU [Mat - Sensor v3 - Turn-off var 2 - D27] (puzzle: Sensor v3, turn-off variant 2)”, the “apparent KD of MS2 coat protein” value came to 15.7 nM under setting [3], 68.7 nM under setting [1] and 14.7 nM under setting [4].

As for “AGUACUAUCACGAGAGUGAUAGUACAUUAAACUUGUGAGACAUGAGGAUCACCCAUGUCCUCAUGAGCUCGUCUUAA [Mat - Sensor v2 - var 2 - Mod - D185] (Eterna round: R96, puzzle: Sensor v2, turn-off variant 2)”, the “apparent KD of MS2 coat protein” value by setting is: (input ligand: FMN 200 uM) 299 nM; under setting [2], 96.1 nM; (input ligand: none) 165 nM.

For “AGUACUAUGCGAGCUGACUUGCGUAGUGCAGCAGGUGAAACAUGAGGAUCACCCAUGUCCUCAUUUGCUCGUCUUAA [Mat - Sensor v3 - Turn-off var 2 - D3] (puzzle: Sensor v3, turn-off variant 2)”, the “apparent KD of MS2 coat protein” value under setting [3] stood at 39.7 nM, the “apparent KD of MS2 coat protein” value under setting [1] is 563 nM and the “apparent KD of MS2 coat protein” value under setting [4] worked out at 38 nM.

For the sequence “AGUACUAUGCGUGCUGACAUGCGUAGUGCAGCAGGUGUAACAUGAGGAUCACCCAUGUCCUCAUUUGCUCGUCUUAA [Mat - Sensor v3 - Turn-off var 2 - D13] (puzzle: Sensor v3, turn-off variant 2)”, the “apparent KD of MS2 coat protein” value was 107 nM under setting [3], 224 nM under setting [1] and 129 nM under setting [4].

“AGUAGAUCUACGCUUGCGUGGAUCUGCAAGGCAGGUGUUACAUGAGGAUCACCCAUGUCCUCAUUUGCUCGUCUUAG [JL turnoff v2 99.07] (puzzle: Sensor v3, turn-off variant 2)”: the “apparent KD of MS2 coat protein” value under setting [3] was found to be 358 nM, the “apparent KD of MS2 coat protein” value under setting [1] was determined as 1100 nM and the “apparent KD of MS2 coat protein” value under setting [4] was determined as 332 nM.

With “AGUAGAUCUACGCUUGCGUGGAUCUGCAUUGCAAGUGUAACAUGAGGAUCACCCAUGUCCUCAUUUGCUCGUCUUAU [JL turnoff v2 99.02] (puzzle: Sensor v3, turn-off variant 2)”, the “apparent KD of MS2 coat protein” value runs as follows: under setting [3], 54.4 nM; under setting [1], 277 nM; under setting [4], 54.2 nM.

“AGUAGAUCUACGCUUGCGUGGAUCUGCUAGGCAGGUGUUACAUGAGGAUCACCCAUGUCCUCAUUUGUUCGUCUUAU [JL turnoff v2 99.17] (puzzle: Sensor v3, turn-off variant 2)”: the “apparent KD of MS2 coat protein” value is, setting by setting: under setting [3], 378 nM; under setting [1], 153 nM; under setting [4], 604 nM.

On to “AGUAGGAGAGGAUAUACGAAGUCAAAAGACUUCGAUCCUCAACAUGAGGAUCACCCAUGUAGAAGGCUCCUACA [Omei Ex2 BD A1] (Eterna round: R97, puzzle: Exclusion 2)”, for which the “apparent KD of MS2 coat protein” value turned out to be 166 nM (input ligand: FMN 200 uM) and 154 nM (input ligand: none).

“AGUAGGUCUACCUUGGUGGAUCUGCAUUUAUGCAGGUGAACAUGAGGAUCACCCAUGUCCUCAUUUGCUCGUCUUAU [JL turnoff v2 99.28] (puzzle: Sensor v3, turn-off variant 2)”: the “apparent KD of MS2 coat protein” value under setting [3] came to 55.3 nM, the “apparent KD of MS2 coat protein” value under setting [1] was found to be 539 nM and the “apparent KD of MS2 coat protein” value under setting [4] was 61.5 nM.

In the case of “AGUAGUAGUAUCCGAUCGUACAUGAGGAUCACCCAUGUAGCUAGACGUGCACGCGAUGCUCGUCAGACUACCAGAUG [salish99_TOv1_r3_036] (puzzle: Sensor v3, turn-off variant 1)”, the “apparent KD of MS2 coat protein” value by setting is: under setting [3], 202 nM; under setting [1], 168 nM; under setting [4], 225 nM.
